The results in this text go back to the Immune Epitope Database (IEDB).

For orientation: Kd means the concentration at which binding is half-saturated.

Holding throughout (assay): IEDB peptide-MHC binding, purified MHC/competitive/radioactivity; filed as Kd, often an IC50 or EC50 that approximates it; ≥ and ≤ were set here for values at or beyond the usual limits of such assays
What all share (conditions): source organism: Severe acute respiratory syndrome coronavirus 2

Experiment [1] addresses HLA-A*01:01.
Experiment [2] has as its target HLA-A*02:01.
For experiment [3], the target named is HLA-A*26:01.
Experiment [4] concerns the target HLA-B*07:02.
Experiment [5] addresses HLA-B*15:01.
The target of experiment [6] is HLA-B*18:01.
For experiment [7], the target named is HLA-B*44:02.
Experiment [8] addresses HLA-B*44:03.
The target in experiment [9] is HLA-B*51:01.

As to STSAFVETV, the Kd in [1] is 12700 nM; in experiment [2] it was 26 nM; in [3], 12100 nM; in experiment [4], 8860 nM; in experiment [5] it was 10400 nM.

Consider HADQLTPTW, for which the Kd amounted to 13400 nM in experiment [5], 3350 nM in experiment [6], 5260 nM in experiment [7] and 1800 nM in experiment [8].

Consider APHGHVMVEL, for which, in experiment [4], the Kd was 6.1 nM.

As for NATNVVIKV, the results for the dissociation constant Kd in experiment [3], in experiment [8] and in experiment [9] were at least 43400 nM, 8110 nM and 536 nM, respectively.

Take VATSRTLSY: the Kd stood at 18800 nM in experiment [1], 11800 nM in experiment [3] and 267 nM in experiment [5].

Consider APRITFGGP, for which the Kd in [2] was 893 nM; in [4], 59 nM.

Consider SLEDKAFQL, for which the Kd in experiment [2] stood at 20 nM; in experiment [5], 1580 nM.

For LEDKAFQL, the Kd was 3890 nM in [2]; 14700 nM in experiment [5]; 35 nM in experiment [6]; at least 35400 nM in experiment [7]; 208 nM in experiment [8].

Take KNIDGYFKIY: the dissociation constant Kd amounted to 11800 nM in experiment [2] and 1450 nM in experiment [5].

Regarding EEFEPSTQYEY, the Kd stood at 18800 nM in experiment [3]; 78 nM in [5]; 1.1 nM in experiment [6]; 50 nM in experiment [7]; 0.41 nM in [8].

For FASEAARVV, the Kd in experiment [2] was 495 nM; in [3], 734 nM; in experiment [4], 8550 nM; in experiment [5] it was 2550 nM; in experiment [6], at least 49500 nM; in experiment [9], 207 nM.

Regarding DEFVVVTV, the Kd in experiment [2] is 13000 nM; in [3], 9550 nM; in [4] it was at least 52800 nM; in experiment [5], 2050 nM; in experiment [6], 0.5 nM; in [7] it was 2800 nM. Also, the Kd in experiment [8] was 1280 nM; in experiment [9], 12800 nM.

Consider ELPDEFVVVTV, for which the dissociation constant (Kd) is 1.6 nM in experiment [2], 72 nM in experiment [3], at least 35100 nM in experiment [5] and 1130 nM in experiment [6].

Consider VGYLQPRTF, for which the Kd was 777 nM in experiment [5] and 707 nM in experiment [6].

Consider FGDDTVIEV, for which the figures for the Kd in experiment [5] and in experiment [9] were 2380 nM and at least 45700 nM, respectively.

As for ELPDEFVVV, the Kd in experiment [2] came out at 460 nM; in experiment [3] it was 6860 nM.

Consider EIKESVQTF, for which the Kd is 7.8 nM in [3], 4930 nM in experiment [5] and at least 37200 nM in experiment [7].

In the case of KRVDWTIEY, the Kd was 356 nM in [5] and at least 22700 nM in experiment [9].
